Patent US20150351390A1, “COMPOSITIONS AND METHODS FOR AUXIN-ANALOG CONJUGATION” (PIONEER HI-BRED INTERNATIONAL, INC., priority 2012, published 2015)

What was measured:
[1] = LC-MS assay of GH3 conjugation of IAA with Asp or Glu; format: biochemical; settings: for kcat (hrs−1) IAA-Asp: conjugation of IAA with Asp by recombinant GH3 protein, IAA-Asp product by LC-MS; for kcat (hrs−1) IAA-Glu: conjugation of IAA with Glu by recombinant GH3 protein, IAA-Glu product by LC-MS
Method in brief: (§1)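 Kinetic parameters come from Michaelis-Menten fits of initial velocities. Velocities reflect LC-MS quantification, against standards, of Asp or Glu conjugates formed by purified GH3 (44 to 164 μg/mL) with 5 mM ATP and MgCl2 at pH 8.0, 30° C.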

[2] = LC-MS assay of GH3 conjugation of 2,4-D with Asp or Glu; format: biochemical; settings: 5 mM 2,4-D substrate; for kcat (hrs−1) 2,4-D-Asp: conjugation of 2,4-D with Asp by recombinant GH3 protein, 2,4-D-Asp product by LC-MS; for kcat (hrs−1) 2,4-D-Glu: conjugation of 2,4-D with Glu by recombinant GH3 protein, 2,4-D-Glu product by LC-MS
Method in brief: as §1

| Molecule | kcat (hrs−1) IAA-Asp [1] [h⁻¹] | kcat (hrs−1) IAA-Glu [1] [h⁻¹] | kcat (hrs−1) 2,4-D-Asp [2] [h⁻¹] | kcat (hrs−1) 2,4-D-Glu [2] [h⁻¹] |
| --- | --- | --- | --- | --- |
| AIGH3-1: GH3 protein, accession XP_002885948 (protein, listed as Arabidopsis lyrata) MAVDSNLSSPLGPPACEKDAKALRFIEEMTRNADTVQENLLAEILARNANTEYLRRFNLGGATDRDTFKTKIPVITYEDLQPEIQRIADGDRSPILSSHPISEFLTSSGTSAGERKLMPTIREELDRRQLLYSLLMPVMNLYVPGLDKGKGMYFLFVKSESKTPGGLPARPVLTSYYKSEHFRSRPYDPYNVYTSPNEAILCPDSFQSMYTQMLCGLLDRLSVLRVGAVFASGLLRAIRFLQLHWSRFANDIELGCLDSEITDPSIRQCMSGILKPDPVLAEFIRRECKSDNWERIITRIWPNTKYLDVIVTGAMAQYIPTLEYYSGGLPMACTMYASSECYFGLNLNPMSKPSEVSYTIMPNMAYFEFIPLGGTKAVELVDVKIGKEYELVVTTYAGLCRYRVGDILRVTGFHNSAPQFHFVRRKNVLLSIDSDKTDESELQKAVENASKILHEECGSRVAEYTSYADTSTIPGHYVLYWELLVRDGARQPSHETITRCCLEMEESLNSVYRQSRVADNSVGPLEIRVVRNGTFEELMDYAISRGASINQYKVPRCVNFTPIVELLDSRVVSAHFSPSLPHWTPERRRR | 436.828 | 14.961 | 2.057 | 0.525 |
| OsGH3-13: GH3 protein, accession EAY81150 (protein, listed as Oryza sativa) MTSTSSENALDHDHDHDASSPAPATATAAALPPMIPACDPHDGPACLELIEVLTTRAAAVQRRVLAEVLAMNTGTDYLRRFLGDEVAAAAGGEDELAAAFKERVPVVEYEDVKPYIERIANGAPSSLISSKPITELLTSSGTSGGQPKLMPATEEELDRKTFLYNLLVPVMNKYVEGLDEGRGMYLLFVKPEITTASGMVARPVLTSYYKSRHFRRRPDSPYTRYTSPDAAILCPDSRQSMYAQLLCGLARRGEVLRVGAVFASAFLRAVKFLEGHWRALCADIRAGRADPAVVTDAACRGAVDAVLAARADPDLADAIAAECGGASWRGIVRRLWPRTKYIDVIVTGSMAQYIPLLEFYGGGLPLVSTMYASSESYFGINLRPLDPPEEVVYTLLPNMCYYEFIKVEKDGDGEKVRDGEVVDLVGVEVGAYYELVVTTFTGLYRYRVGDILQVAGFHNAAPQFRFVHRRNVVLSVDTDKTSEDDLLRAVTAAKPLLDPLSCVLAEYTAYADTSSIPGHYVLFWELTPSPSPPPPPCHDDANDAADIGEDKDKVAHVMAACCAAVEAGLDSVYRRCRSRDRSIGPLEIRVVAPGAFDALMDMCVSHGSSVNQYKTPRCIKHPDAIAVLEQRVVGRFFSDAVPHWEPLKVDGAAAAPATGSDQ | 10.812 | 494.321 | 0.639 | 5.237 |
| AIGH3-3: GH3 protein, accession XP_002880486 (protein, listed as Arabidopsis lyrata) MTVDLPLRSPMNYSPSDKDVKALRFIEEMIRNVDFVQNKVIREILRRNSETEYLKRFGLKGFTDRKAFKTKVPVVTYDDLKPEIQRIANGDRSMILSSHPITEFLTSSGTSAGERKLMPTIEEDMDRRQLLYSLLMPVMNLYVPGLDKGKALYFLFVKTESKTPGGLPARPVLTSYYKSEQFKRRPYDPYNVYTSPNEAILCPDSSQSMYTQMLCGLLMRHEVLRLGAVFASGLLRAIGFLQTNWKELANDISTGTLSSRISDPAIKESMSKILTKPDQELADFITSVCGQDNNWEGIITKIWPNTKYLDVIVTGAMAQYIPMLEYYSGGLPMACTMYASSESYFGINLKPMCKPSEVSYTIMPNMAYFEFLPHEVPTGKSELVELADVEVGKEYELVITTYAGLNRYRVGDILQVTGFYNSAPQFKFVRRKNVLLSIESDKTDEAELQKAVENASVLLGEQGNRVIEYTSYAETKTIPGHYVIYWELLVKDQTNPPNDEVMARCCLEMEESLNSVYRQSRVADKSIGPLEIRVVKNGTFEELMDYAISRGASINQYKVPRCVSFTPIMELLDSRVVSTHFSPALPHWSPERRC | 3315.262 | 71.865 | 1.566 | 0.172 |
| AIGH3-4: GH3 protein, accession XP_002886679 (protein, listed as Arabidopsis lyrata) MAVDSPLQSRIASPTTSEKDMKALMFIEEMTRNPDSVQEKVLGEILSRNSNTEYLKRFDLNGAVDRKTFKSKVPVVMYEDLKTEIQRISNGDRSPILSSHPINEFLTSSGTSSGERKLMPTIEEDIHRRQLLGSLLMPVMNLYLPGLDKGKGLYFLFVKSESKTSGGLPARPALTSYYKSDHFKTSDLQNDYTSPREAILCSDSSQSMYAQMLCGLLMRHEVLRLGAVFPSGLLRAISFLQNNWKELAQDISTGILSSKIFDPAVNNRMSKILNKPDEELAEFLIGVCSQENWEGIITKIWPNTKYLDVIITGAMAQYIPMLEYYSGGLPIASTIYASSESYFGINLNPMCKPSEVSYTIMPNMAYFEFLPHNHDGDGALDETSLVELADVEVGKEYELVITTYAGLYRYRVGDILCVTGFHNSAPQFKFIRRKNVLLSIESDKTDEADLQKAVDNASRLLAEQGTSVIEYTSYAETKTIPGHYVIYWELLGRDQSNALPSDEVMAKCCLEMEESLNSVYRQSRVSDKSIGPLEIRVVQNGTFDELMDYAISRGSSINQYKVPRCVSLTPILELLDSRVVSAHFSTSLPHWSPERRH | 3.013 | 0.000 | 0.040 | 0.006 |
| AIGH3-5: GH3 protein, accession XP_002869571 (protein, listed as Arabidopsis lyrata) MPEAPKKVSLEVFDLTLDQKNKQKLQLIEELTSNADQFQRRVLEEILSRNADVEYLRRHYLNGRTDRETFKNVMPVITYEDIQPEINRIANGDKSPILSSKPISEFLTSSGTSGGERKLMPTIEEELDRRSLLYSLLMPVMSQFVPGLENGKGMYFLFIKSESKTPGGLPARPVLTSYYKSSHFKERPYDPYTNYTSPNETILCSDSYQSMYSQMLCGLCQHQEVLRVGAVFASGFIRAIKFLEKHWTELVRDIRTGTLSSLITDPSVREAVSKILKPNSKLAEFVEFECKKSSWQGIITRLWPNTKYVDVIVTGTMSQYIPTLDYYSNGLPLVCTMYASSECYFGVNLRPLCKPSEVSYTLIPSMAYFEFLPVHRNNGVTNSINLPKALTEKEQQELVDLVDVKLGQEYELVVTTYAGLCRYRVGDLLRVTGFKNKAPQFSFICRKNVVLSIDADKTDEVELQNAVKNAVTYLVPFDASLSEYTSYADTSSIPGHYVLFWELCLDGNTPIPPSVFEDCCLTVEESFNTVYRQGRVSDKSIGPLEIKIVEPGTFDKLMDYAISLGASINQYKTPRCVKFAPIIELLNSRVVNSYLSPKCPKWVPGHKQWGSN | 429.073 | 24.704 | 1.586 | 0.421 |
